The record followed here is patent US20240327815A1.

Assay [1] concerns the target Delta SARS-CoV-2 spike protein, plate-coated (MSD) (SARS-CoV-2) (UniProt P0DTC2). Description: MSD competition vs labelled ACE2.
For assay [2], the target named is Omicron SARS-CoV-2 spike protein, plate-coated (MSD) (SARS-CoV-2) (UniProt P0DTC2). Description: MSD competition vs labelled ACE2.
Assay [3] concerns the target P.1 (Gamma) SARS-CoV-2 spike protein, plate-coated (MSD) (SARS-CoV-2) (UniProt P0DTC2). Description: MSD competition vs labelled ACE2.
Assay [4] has as its target B.1.1.7 (Alpha) SARS-CoV-2 spike protein, plate-coated (MSD) (SARS-CoV-2) (UniProt P0DTC2). Description: MSD competition vs labelled ACE2.
Assay [5] addresses B.1.351 (Beta) SARS-CoV-2 spike protein, plate-coated (MSD) (SARS-CoV-2) (UniProt P0DTC2). Description: MSD competition vs labelled ACE2.
For assay [6], the target named is Beta SARS-CoV-2 spike on pseudotyped lentivirus (SARS-CoV-2) (UniProt P0DTC2). Description: cell-based or functional assay.
In assay [7] the target is spike of live SARS-CoV-2 Delta variant (SARS-CoV-2) (UniProt P0DTC2). Description: cell-based or functional assay.
The target in assay [8] is Delta SARS-CoV-2 spike on pseudotyped lentivirus (SARS-CoV-2) (UniProt P0DTC2). Description: cell-based or functional assay.
For assay [9], the target named is Alpha SARS-CoV-2 spike on pseudotyped lentivirus (SARS-CoV-2) (UniProt P0DTC2). Description: cell-based or functional assay.
Assay [10] has as its target spike of live SARS-CoV-2 Beta variant (SARS-CoV-2) (UniProt P0DTC2). Description: cell-based or functional assay.

As usually defined, the IC50 is the concentration needed to halve the response being measured. A low value points to higher potency. For the substance REGEN-COV, the half-maximal inhibitory concentration (IC50) in [1] stood at 0.05 nM; in assay [2], 13.1 nM; in assay [3], 0.4 nM; in [4], 0.06 nM; in assay [5], 0.35 nM. Also, the results for the Pseudovirus Neutralization (IC50, nM) in assay [6], in assay [8] and in [9] were 4.9 nM, 0.05 nM and 0.06 nM, respectively. Moreover, the Live virus neutralization (MN50, nM) in assay [7] is 0.05 nM; in assay [10], 0.08 nM. This substance also had a Live virus neutralization MN50 in assay [7] of 0.05 nM. Also, the Pseudovirus neutralization IC50 in assay [8] is 0.05 nM.
